In data set [1] the target is T1, SsoRadA (Saccharolobus solfataricus, UniProt Q55075).
T1 sequence (Q55075 1-324): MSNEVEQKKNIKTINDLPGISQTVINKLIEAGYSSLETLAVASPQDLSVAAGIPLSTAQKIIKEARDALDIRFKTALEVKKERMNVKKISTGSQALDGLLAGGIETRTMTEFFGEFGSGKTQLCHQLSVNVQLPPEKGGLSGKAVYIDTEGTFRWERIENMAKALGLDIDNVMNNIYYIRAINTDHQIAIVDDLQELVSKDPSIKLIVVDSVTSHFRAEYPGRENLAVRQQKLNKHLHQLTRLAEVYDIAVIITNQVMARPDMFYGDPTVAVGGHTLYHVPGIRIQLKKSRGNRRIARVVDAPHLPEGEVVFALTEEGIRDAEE
Put plainly: filter binding, saturation binding curve.

Data set [2] has as its target SsoRadA (Saccharolobus solfataricus, UniProt Q55075, K120R). Put plainly: filter binding, saturation binding curve.
For data set [3], the target named is T2, SsoRadA (Sulfolobus solfataricus, UniProt Q55075 1-324).
T2 sequence: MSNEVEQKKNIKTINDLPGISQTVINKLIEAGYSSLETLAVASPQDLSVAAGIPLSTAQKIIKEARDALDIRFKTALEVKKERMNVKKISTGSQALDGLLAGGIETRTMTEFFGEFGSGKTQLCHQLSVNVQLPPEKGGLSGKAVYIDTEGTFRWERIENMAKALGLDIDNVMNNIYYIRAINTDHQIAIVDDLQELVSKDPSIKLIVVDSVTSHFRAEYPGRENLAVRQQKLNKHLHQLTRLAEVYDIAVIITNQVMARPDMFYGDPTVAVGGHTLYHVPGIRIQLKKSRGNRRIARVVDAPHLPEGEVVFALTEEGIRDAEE
Put plainly: EMSA. Background: In EMSA bound probe runs differently from free probe, usually more slowly.

In data set [4] the target is T3, SsoRadA K120A (Sulfolobus solfataricus, UniProt Q55075 1-324, K120A).
T3 sequence: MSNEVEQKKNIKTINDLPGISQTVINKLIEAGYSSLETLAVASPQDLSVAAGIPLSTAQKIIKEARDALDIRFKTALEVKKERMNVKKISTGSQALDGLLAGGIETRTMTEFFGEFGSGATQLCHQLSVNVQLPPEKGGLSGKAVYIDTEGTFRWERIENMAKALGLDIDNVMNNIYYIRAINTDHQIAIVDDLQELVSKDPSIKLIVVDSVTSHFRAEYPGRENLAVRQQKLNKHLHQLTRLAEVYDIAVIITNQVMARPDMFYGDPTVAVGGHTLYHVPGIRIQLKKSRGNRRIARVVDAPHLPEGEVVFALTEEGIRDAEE
As to the kind of experiment: EMSA.

Data set [5] has as its target T2, SsoRadA. Put plainly: EMSA. The source holds these as a separate data set.
Data set [6] concerns the target T3, SsoRadA K120A. As to the kind of experiment: EMSA. The source holds these as a separate data set.
A further data set deals with T4, SsoRadA K120R (Sulfolobus solfataricus, UniProt Q55075 1-324, K120R).
T4 sequence: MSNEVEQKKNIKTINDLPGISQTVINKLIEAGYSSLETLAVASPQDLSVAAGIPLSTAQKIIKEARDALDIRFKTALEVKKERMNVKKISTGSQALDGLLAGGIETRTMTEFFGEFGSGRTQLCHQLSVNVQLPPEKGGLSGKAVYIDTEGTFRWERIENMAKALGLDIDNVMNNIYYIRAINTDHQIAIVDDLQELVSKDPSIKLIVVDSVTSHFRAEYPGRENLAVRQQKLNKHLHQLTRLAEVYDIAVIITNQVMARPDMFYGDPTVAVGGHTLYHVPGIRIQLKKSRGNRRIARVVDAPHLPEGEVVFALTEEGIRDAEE
As to the kind of experiment: EMSA.

Read-outs that look alike come from different tables or passages of the source.

What is called Kd is the equilibrium constant for the complex coming apart. A higher Kd goes with weaker binding. Take `Nc1ncnc2c1ncn2[C@@H]1O[C@H](COP(=O)(O)OP(=O)(O)OP(=O)(O)O)[C@@H](O)[C@H]1O` [ATP]: the values for the Kd at SsoRadA [1] and at SsoRadA [2] were 2.4 ± 0.6 µM and 59.4 ± 9.4 µM, respectively.

B1: 63-mer ssDNA (ssDNA)
DNA: ACAGCACCAATGAAATCTATTAAGCTCCTCATCGTCCGCAAAAATATCGTCACCTCAAAAGGA
B1: the binding result with SsoRadA [3] and in the data set with SsoRadA K120A [4] was “binds” each time.

B2: 63-mer dsDNA (dsDNA)
DNA 1: ACAGCACCAATGAAATCTATTAAGCTCCTCATCGTCCGCAAAAATATCGTCACCTCAAAAGGA
DNA 2: TCCTTTTGAGGTGACGATATTTTTGCGGACGATGAGGAGCTTAATAGATTTCATTGGTGCTGT
With B2, the binding result with SsoRadA [5], with SsoRadA K120A [6] and with SsoRadA K120R was “no binding” in each case.

Values taken from article PMC4084651 (DNA repair, 2013).
